In patent US20060257938A1, “Method of screening for drugs that block ligand binding to a lipid binding protein” (priority 2005, published 2006):
Several values for one entry are separate records, joined by “and”; a condition that tells them apart may be missing. Equal entries are not always repeated.

How the values were obtained:
ADIFAB = target: T1, ADIFAB (Rattus norvegicus, UniProt P02693); experiment: ADIFAB screening assay in 96-well plates (emission ratio 505/432); format: binding
T1 construct: purchased FFA Sciences LLC, San Diego, Calif
T1 sequence (P02693 2-132): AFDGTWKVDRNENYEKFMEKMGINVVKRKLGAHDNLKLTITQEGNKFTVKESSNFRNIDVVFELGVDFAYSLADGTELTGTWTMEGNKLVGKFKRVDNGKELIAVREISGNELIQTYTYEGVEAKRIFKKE
From the text: In a preferred embodiment, the probe is a fatty acid binding protein (FABP), more preferably a recombinant rat intestinal fatty acid binding protein (rI-FABP), which has been derivatized with acrylodan. DNA and protein sequences for Fatty Acid Binding Proteins (FABPs) are shown in the sequence listing. […] The rat fatty acid binding protein is post-translationally modified in the rat, with the modifications including the removal of the N-terminal methionine and the acetylation of the “new” N-terminal residue Ala. Protein sequences are numbered starting with the first residue of the mature protein. Thus, Ala is residue 1 in the corresponding protein shown as SEQ ID NO: 2. […]
Five identical 96-well plates were prepared with 0.5 μM ADIFAB and 1% dimethyl sulfoxide in 200 μL aqueous buffer (20 mM HEPES, 140 mM NaCl, 5 mM KCl, 1 mM Na2HPO4, pH 7.4) to test assay reproducibility, precision, and quality. Wells were excited at 386 nm and the emission detected at 432 and 505 nm with a fluorescence plate reader connected via fiber optic cables to a standard Spex spectrofluorometer. The emission ratio (505/432), which determines the amount of bound […], was calculated for each well. A positive control (4 μM sodium oleate (OA)) was added to each well and the ratio was measured again. […] The Z′-factor, as defined below, provides a quantitative assessment of the assay [Zhang, J., et al J. Biomol. […]

[1] = Binding affinities of ADIFAB2 compared with ADIFAB; conditions: greater than ADIFAB
From the text: ADIFAB2 also has an altered spectral response, making it especially useful for measurements of FFAu in blood samples (Apple et al, Clinical Proteomics, (2004) 1:41-44, U.S. patent application Ser. No. 10/670,958). The wavelengths at the maximum intensities emitted by these fluorescently-labeled I-FABP's in the absence of FFA is about 420 to 480 nm. The emission wavelengths at the maximum intensities emitted by these fluorescently-labeled I-FABP's with FFA bound are between about 495 to 580 nm. Experiments typically involve measuring the fluorescence response within both emission maxima or at wavelengths for which the effect of interfering molecules such as hemoglobin can be eliminated as described in U.S. application Ser. No. 10/670958 and PCT/US2004/030521 and the calculation of the ratio ‘R’ of the two fluorescence intensities. The baseline value for this ratio, measured in the absence of analyte, is designated R0.

[2] = Probe fluorescence intensity change with UCB:BSA; format: binding

With `CCCCCCCC/C=C\CCCCCCCC(=O)[O-].[Na+]` [OA, sodium oleate] the “ρc+ average ratio (505/432), Positive Control (+OA)” value (ADIFAB; 4 μM OA, 0.5 μM ADIFAB, 1% dimethyl sulfoxide, one value per plate 1-5) was 1.77 and 1.84 and 1.81 and 1.68 and 1.83 and the ΔR (ADIFAB; 4 μM oleate, positive control) was 1.8.

B1: ADIFAB2: acrylodan-derivatized rI-FABP with Ala substituted for Leu at position 72 (rI-FABP-L72A), SEQ ID NO: 4 (protein, listed as Rattus norvegicus)
chain: AFDGTWKVDRNENYEKFMEKMGINVVKRKLGAHDNLKLTITQEGNKFTVKESSNFRNIDVVFELGVDFAYSAADGTELTGTWTMEGNKLVGKFKRVDNGKELIAVREISGNELIQTYTYEGVEAKRIFKKDRGHHHHHH
modifications: acrylodan label; MUTAGEN (72)...(72) rat intestinal fatty acid binding protein with alanine substitution for leucine at position 72
With B1 the “binding affinities relative to ADIFAB” value [1] was “about 10 fold”, the “ΔI/Io 1:1 UCB:BSA 440 nm” value ([2]; 1:1 UCB:BSA, 440 nm) was −0.40 and the “ΔI/Io 1:1 UCB:BSA 500 nm” value ([2]; 1:1 UCB:BSA, 500 nm) was −0.34. The “ΔI/Io 1:2 UCB:BSA 440 nm” value ([2]; 1:2 UCB:BSA, 440 nm) was −0.19 and the “ΔI/Io 1:2 UCB:BSA 500 nm” value ([2]; 1:2 UCB:BSA, 500 nm) was −0.16.
